This note sets out measurements from US20060242739A1, “Plant nucleotide-sugar pyrophosphatase/phosphodiesterase (nppase), method of obtaining same and use of same in the production of assay devices and in the production of transgenic plants” (Universidad Publica De Navarra, priority 2002, published 2006).

What all share (assay): purified protein, by the assay type
Substrate in series [1]: NC(=O)c1ccc[n+]([C@@H]2O[C@H](COP(=O)(O)OP(=O)(O)OC[C@H]3O[C@@H](n4cnc5c(N)ncnc54)[C@H](O)[C@@H]3O)[C@@H](O)[C@H]2O)c1
As to conditions: other: substrate of NPPase from barley leaves; pH 7.0.

Substrate in series [2]: Nc1ccn([C@@H]2O[C@H](COP(=O)(O)OP(=O)(O)O[C@H]3O[C@H](CO)[C@@H](O)[C@H](O)[C@H]3O)[C@@H](O)[C@H]2O)c(=O)n1
The conditions noted are these: pH 7.0.

Substrate in series [3]: Nc1nc2c(ncn2[C@@H]2O[C@H](COP(=O)(O)OP(=O)(O)O[C@H]3O[C@H](CO)[C@@H](O)[C@H](O)[C@@H]3O)[C@@H](O)[C@H]2O)c(=O)[nH]1
The conditions noted are these: pH 7.0.

Substrate in series [4]: Nc1ncnc2c1ncn2[C@@H]1O[C@H](COP(=O)(O)OP(=O)(O)O)[C@@H](O)[C@H]1O
The conditions noted are these: pH 7.0.

Substrate in series [5]: Nc1ncnc2c1ncn2[C@@H]1O[C@H](COP(=O)(O)OP(=O)(O)OP(=O)(O)O)[C@@H](O)[C@H]1O
As to conditions: pH 7.0.

Substrate in series [6]: Nc1ncnc2c1ncn2[C@@H]1O[C@H](COP(=O)(O)OP(=O)(O)O[C@H]2O[C@H](CO)[C@@H](O)[C@H](O)[C@@H]2O)[C@@H](O)[C@H]1O
As to conditions: other: substrate of NPPase from barley leaves; pH 7.0.

Substrate in series [7]: Nc1ncnc2c1ncn2[C@@H]1O[C@H](COP(=O)(O)OP(=O)(O)O[C@H]2O[C@H](CO)[C@@H](O)[C@H](O)[C@H]2O)[C@@H](O)[C@H]1O
The conditions noted are these: pH 7.0.

Substrate in series [8]: O=[N+]([O-])c1ccc(OP(=O)(O)O)cc1
The conditions noted are these: other: substrate of NPPase from barley leaves; pH 7.0.

Substrate in series [9]: O=[N+]([O-])c1ccc(OP(=O)(O)Oc2ccc([N+](=O)[O-])cc2)cc1
The conditions noted are these: pH 7.0.

Substrate in series [10]: Cc1cn([C@H]2C[C@H](O)[C@@H](COP(=O)(O)OP(=O)(O)O[C@H]3O[C@H](CO)[C@@H](O)[C@H](O)[C@H]3O)O2)c(=O)[nH]c1=O
The conditions noted are these: other: substrate of NPPase from rice leaves; pH 7.0; 37.0 °C.

Substrate in series [11]: Nc1nc2c(ncn2[C@@H]2O[C@H](COP(=O)(O)OP(=O)(O)O[C@H]3O[C@H](CO)[C@@H](O)[C@H](O)[C@H]3O)[C@@H](O)[C@H]2O)c(=O)[nH]1
The conditions noted are these: other: substrate of NPPase from rice leaves; pH 7.0; 37.0 °C.

Substrate in series [12]: Nc1ncnc2c1ncn2[C@@H]1O[C@H](COP(=O)(O)OS(=O)(=O)O)[C@@H](O)[C@H]1O
As to conditions: other: substrate of NPPase from rice leaves; pH 7.0; 37.0 °C.

[13] abbreviates: other: substrate of NPPase from barley leaves.
The mark [14] stands for this setting: other: substrate of NPPase from rice leaves, 37.0 °C.

B1: NPPase from barley leaves (Hordeum vulgare) (protein)
chain: SDGSVVWAKPYTFRAPPTPGQNSLQRIIVFGDMGKAERDGSNEFANYQPGSLNTTDRLIEDLDNYDIVFHIGDMPYANGYLSQWDQFTAQVAPISAKKPYMVASGNHERDWPNTGGFFDVKDSGGECGVPAETMYYYPAENRANFWYKVDYGMFRFCVGDSEHDWREGTPQYKFIEECLSTVDRKHQPWLIFTAHRVLGYSSNSWYADQGSFEEPEGRESLQKLWQRYRVDIAYFGHVHNYERTCPLYQSQCVNADKTHYSGTMNGTIFVVAGGGGSHLSSYTTAIPKWSIFRDHDYGFTKLTAFNHSSLLFEYMKSSDGKVYDSFTIHRDYRDVLSCVHDSCFPTTLAS
Broadly, the Km is the substrate concentration at which the rate is half of its maximum. As to B1, the Km in series [1] worked out at 2.5 mM; in [2] (setting [13]), 2.8 mM; in series [3] (setting [13]), 0.4 mM; in series [4] (setting [13]), 3.5 mM; in [5] (setting [13]) it was 3.5 mM; in [6], 0.4 mM. Further, the values for the Km in series [7] (setting [13]), in series [8] and in series [9] (setting [13]) were 0.5 mM, 0.5 mM and 0.3 mM, respectively.

B2: NPPase from rice leaves (Oryza sativa Japonica Group) (protein)
chain: SRPSSSLEGFQPLSKIAVHKATVDLHGSAFVSATPALLGDQGEDTEWVTVKYGWANPSADDWIAVFSPADFISGSCPNPSRYPDEPLLCTAPIKYQFANYSANYVYWGKGSIRFQLINQRYDFSFALFTGGLENPKLVAVSEAISFKNPKAPVYPRLAQGKSYDEMTVTWTSGYDISEAYPFVEWGMVVAGAAAPTRTAAGTLTFNRGSMCGEPARTVGWRDPGFIHTAFLRDLWPNKEYYYKIGHELSDGSIVWGKQYTFRAPPFPGQNSLQRIIVFGDMGKAERDGSNEFANYQPGSLNTTDRLVEDLDNYDIVFHIGDLPYANGYISQWDQFTAQVAPITAKKPYMIASGNHERDWPNTGGFFDVKDSGGECGVPAETMYYYPAENRANFWYKVDYGMFRFCIADSEHDWREGTDQYKFIEQCLSTVDRKHQPWLIFAAHRVLGYSSNWWYADQGSFEEPEGRESLQRLWQRHRVDVAFFGHVHNYERTCPMYQSQCVSGERRRYSGTMNGTIFVVAGGGGSHLSDYTSAIPKWSVFRDRDFGFVKLTAFNHSSLLFEYKKSSDGKVYDSFTVERDYRDVLSCVHDSCLPTTLAS
For orientation: Vmax means the top rate of the reaction or transport when substrate is in excess. Usually kcat/Km stands for the second-order rate constant that governs catalysis at low substrate concentration. As for B2, the Km in series [10] is given as 0.60 mM; in series [2] (setting [14]), 0.92 mM; in series [3] (setting [14]), 0.80 mM; in [11], 0.93 mM; in series [4] (setting [14]), 4.33 mM; in series [5] (setting [14]), 2.06 mM. The Michaelis-Menten constant (Km) in series [7] (setting [14]) is on record as 0.60 mM; in series [12], 3.04 mM; in series [9] (setting [14]) it was 1.30 mM. The Vmax in [10] worked out at 106 µmol/min/mg; in series [2] (setting [14]) it was 107 µmol/min/mg; in series [3] (setting [14]), 129 µmol/min/mg; in [11], 119 µmol/min/mg; in series [4] (setting [14]), 385 µmol/min/mg; in series [5] (setting [14]), 356 µmol/min/mg. Moreover, the Vmax in [7] (setting [14]) came to 183 µmol/min/mg; in [9] (setting [14]), 191 µmol/min/mg. In addition, the kcat/Km stood at 206000 M⁻¹ s⁻¹ in series [10]; 190000 M⁻¹ s⁻¹ in [3] (setting [14]); 148000 M⁻¹ s⁻¹ in series [11]; 100000 M⁻¹ s⁻¹ in series [4] (setting [14]); 203000 M⁻¹ s⁻¹ in series [5] (setting [14]); 350000 M⁻¹ s⁻¹ in series [7] (setting [14]). Also, in [9] (setting [14]), the kcat/Km came to 171000 M⁻¹ s⁻¹.
